T1: zcyto20 (Homo sapiens, UniProt Q8IZJ0)
T1 sequence (Q8IZJ0 26-200): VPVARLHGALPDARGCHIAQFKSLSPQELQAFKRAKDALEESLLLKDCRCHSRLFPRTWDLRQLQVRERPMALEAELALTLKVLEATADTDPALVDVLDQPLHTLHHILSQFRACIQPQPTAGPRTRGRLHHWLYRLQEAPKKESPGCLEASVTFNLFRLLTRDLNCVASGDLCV


Experiments:
zcyto20 = biological target: T1, zcyto20; test: Inhibition of ligand-induced ISRE signaling by soluble receptors, 293 HEK cells overexpressing zcytor19, ligand zcyto20; format: cell-based; conditions: all three ligands together; soluble receptor 10 micrograms/ml
Description: A signal transduction reporter assay can be used to show the inhibitor properties of zcytor19-Fc4 homodimeric and zcytor19-Fc/CRF2-4-Fc heterodimeric soluble receptors on zcyto20, zcyto21 and zcyto24 signaling. Human embryonal kidney (HEK) cells overexpressing the zcytor19 receptor are transfected with a reporter plasmid containing an interferon-stimulated response element (ISRE) driving transcription of a luciferase reporter gene. Luciferase activity following stimulation of transfected cells with ligands (including zcyto20 (SEQ ID NO:18), zcyto21 (SEQ ID NO:20), zcyto24 (SEQ ID NO:8)) reflects the interaction of the ligand with soluble receptor.
The results obtained are shown as the percent inhibition of ligand-induced signaling in the presence of soluble receptor relative to the signaling in the presence of PBS alone.

mouse OAS, Pkr and Mx1 = test: ISG gene induction in liver, spleen and blood of C57BL/6 mice injected with protein (real-time PCR); format: in vivo; conditions: i.p. or i.v., 10 μg-250 μg, 1 hr-48 hr
Description: Mice were sacrificed at various time points (1 hr-48 hr). Spleens and livers were isolated from mice, and RNA was isolated. RNA was also isolated from the blood cells. The cells were pelleted and RNA isolated from pellets using RNAEasy®-kit (Qiagen). RNA was treated with DNase (Amicon) to rid RNA of any contaminating DNA. cDNA was generated using Perkin-Elmer RT mix (Perkin-Elmer). ISG gene induction was measured by real-time PCR using primers and probes specific for mouse OAS, Pkr and Mx1. To obtain quantitative data, HPRT real-time PCR was duplexed with ISG PCR. A standard curve was calculated using known amounts of IFN-stimulated mouse PBLs. All data are shown as expression relative to internal HPRT expression.
Results shown are fold expression relative to HPRT gene expression. […] The data shown is the average expression from 5 different animals/group.
Mice were injected with 100 μg of proteins i.v. Data shown is fold expression over HPRT expression from livers of mice. Similar data was obtained from blood and spleens of mice.

Mouse B cells = test: 3H-thymidine incorporation by mouse B cells; format: cell-based
Description: Mouse B cells were isolated from 2 Balb/C spleens (7 months old) by depleting CD43+ cells using MACS magnetic beads. Purified B cells were cultured in vitro with LPS, anti-IgM or anti-CD40 monoclonal antibodies. Mouse IL-28 or mouse IFNα was added to the cultures and ^3H-thymidine was added at 48 hrs. and ^3H-thymidine incorporation was measured after 72 hrs. culture.

[1] = system: mouse OAS, Pkr and Mx1 in AML-12 cells; test: ISG induction in the mouse liver cell line AML-12 (real-time PCR); format: cell-based; conditions: AML-12, 20 ng/ml, 48 hour time point
adenoviral vector, AdGFP = test: Adenoviral vector (AdGFP) liver pathology model in C57Bl/6 mice; conditions: 50 μg i.p., 7 doses; H&E
OAS activity = OAS activity in serum and plasma of treated mice (OAS radioimmunoassay); format: in vivo, mouse; conditions: i.v., 10 μg-250 μg
Description: Serum and plasma were isolated from mice at varying time points, and OAS activity was measured using the OAS radioimmunoassay (RIA) kit from Eiken Chemicals (Tokyo, Japan).

Row | Molecule | inhibition of zcyto20, zcyto21 and zcyto24-induced signaling (zcyto20) | ISG gene expression (OAS, Pkr, Mx1) in the livers, spleen and blood of mice (mouse OAS, Pkr and Mx1) | liver and inflammation scores (liver histology) versus the PBS-treated group (adenoviral vector, AdGFP) | other results
1 | HuCRF2-4-Fc: human CRF2-4-Fc homodimeric soluble receptor | No significant effects | – | – | –
2 | IL-28A: human IL-28A cytokine polypeptide, previous designation zcyto20 (e.g. SEQ ID NO:18, CHO-derived) (protein, listed as Homo sapiens, SIGNAL (1)...(25)) MKLDMTGDCTPVLVLMAAVLTVTGAVPVARLHGALPDARGCHIAQFKSLSPQELQAFKRAKDALEESLLLKDCRCHSRLFPRTWDLRQLQVRERPMALEAELALTLKVLEATADTDPALVDVLDQPLHTLHHILSQFRACIQPQPTAGPRTRGRLHHWLYRLQEAPKKESPGCLEASVTFNLFRLLTRDLNCVASGDLCV | – | did not induce | – | –
3 | Muzcytor19-Ig: murine zcytor19-Ig homodimeric soluble receptor (protein, left off: a dimerising Fc or GST, murine zcytor19-Ig homodimeric soluble receptor) RPRLAPPRNVTLFSQNFTVYLTWLPGLGSPPNVTYFVTYQSYIKTGWRPVEHCAGIKALVCPLMCLKKLNLYSKFKGRVQAASAHGRSPRVESRYLEYLFDVELAPPTLVLTQMEKILRVNATYQLPPCMPSLELKYQVEFWKEGLGSKTLFPDTPYGQPVQIPLQQGASRRHCLSARTVYTLIDIKYSQFSEPSCIFLEAPGDKRA | No significant effects | – | – | –
4 | Zcyto24: mouse IL-28 (zcyto24), SEQ ID NO:8 (protein, listed as Mus musculus) MKPETAGGHMLLLLLPLLLAAVLTRTQADPVPRATRLPVEAKDCHIAQFKSLSPKELQAFKKAKDAIEKRLLEKDLRCSSHLFPRAWDLKQLQVQERPKALQAEVALTLKVWENMTDSALATILGQPLHTLSHIHSQLQTCTQLQATAEPRSPSRRLSRWLHRLQEAQSKETPGCLEASVTSNLFRLLTRDLKCVANGDQCV | – | – | lower | 3H-thymidine incorporation (Mouse B cells; B cells stimulated with LPS or anti-IgM, IFNα 10 ng/ml, mouse IL-28 any concentration including 1000 ng/ml, 72 hrs): did not inhibit; 3H thymidine incorporation (Mouse B cells; B cells stimulated with anti-CD40 MAb): increased; Mx1 (expression relative to HPRT) [1]: 0.08; OAS (expression relative to HPRT) [1]: 0.04; PkR (expression relative to HPRT) [1]: 0.02
5 | IL-29: human IL-29 cytokine polypeptide, previous designation zcyto21 (e.g. SEQ ID NO:20, CHO-derived) (protein, listed as Homo sapiens, SIGNAL (1)...(19)) MAAAWTVVLVTLVLGLAVAGPVPTSKPTTTGKGCHIGRFKSLSPQELASFKKARDALEESLKLKNWSCSSPVFPGNWDLRLLQVRERPVALEAELALTLKVLEAAAGPALEDVLDQPLHTLHHILSQLQACIQPQPTAGPRPRGRLHHWLHRLQEAPKKESAGCLEASVTFNLFRLLTRDLKYVADGNLCLRTSTHPEST | – | induced | lower | OAS activity in the serum and plasma of mice (OAS activity): induced
